Holding throughout (experiment): SPR (Biacore), antibody captured on chip, FcgR extracellular domain as analyte
The target of one assay is T1, FcgRIa (human, UniProt P12314 16-292).
T1 construct: extracellular domain; Expressed in FreeStyle293 cells and purified; used as analyte in Biacore; also called FcγRIa; FcγRI; not shown: His tag attached to the C terminus
The method, then: (§1) H240-Kn113 (SEQ ID NO: 92) resulting from introduction of Y234E and Y235N into H240-Kn072, H240-Kn115 (SEQ ID NO: 93) resulting from introduction of S239M into H240-Kn072, and H240-Kn125 (SEQ ID NO: 94) resulting from introduction of Y235Q and S239M into H240-Kn072 were prepared according to the method described in Reference Example 1.
(§2) Analysis of interaction between obj ective antibody and the FcγR was carried out using Biacore T100 (GE Healthcare), Biacore T200, Biacore A100, and Biacore 4000. HBS-EP+ (GE Healthcare) was used as the running buffer, and the measurement temperature was set to 25° C. Chips produced by immobilizing the antigen peptide by the amine coupling method to a Series S sensor Chip CM5 (GE Healthcare), chips produced by allowing preliminarily biotinylated antigen peptides to interact with and immobilize onto a Series S Sensor Chip SA (certified) (GE Healthcare), chips produced by immobilizing Protein L (ACTIGEN, BioVision) to Series S Sencor Chip CM5 (GE Healthcare), or chips produced by immobilizing Protein A/G (Thermo Scientific) to Series S Sencor Chip CM5 (GE Healthcare) were used. Antibodies of interest were captured onto these chips, and allowed to interact to each FcγR diluted with running buffer. To regenerate and repeatedly use the chip, the antibodies captured onto the chip were washed off by reacting 10 mM glycine-HCl, pH 1.5.

The target of another assay is T2, FcgRIIa R (human, UniProt P12318 34-217).
T2 construct: extracellular domain; also called FcγRIIa R; FcγRIIa type R; not shown: His tag attached to the C terminus
T2 sequence (looked up): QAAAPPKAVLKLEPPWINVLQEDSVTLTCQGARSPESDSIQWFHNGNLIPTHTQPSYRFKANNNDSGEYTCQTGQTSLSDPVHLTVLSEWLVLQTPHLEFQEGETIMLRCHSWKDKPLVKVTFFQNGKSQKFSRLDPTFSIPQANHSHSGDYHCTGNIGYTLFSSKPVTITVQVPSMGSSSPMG
The protocol:
as §1, §2

Another assay has as its target T3, FcgRIIa H (human, UniProt P12318 34-217).
T3 construct: extracellular domain; also called FcγRIIa H; FcγRIIa type H; not shown: His tag attached to the C terminus
T3 sequence (looked up): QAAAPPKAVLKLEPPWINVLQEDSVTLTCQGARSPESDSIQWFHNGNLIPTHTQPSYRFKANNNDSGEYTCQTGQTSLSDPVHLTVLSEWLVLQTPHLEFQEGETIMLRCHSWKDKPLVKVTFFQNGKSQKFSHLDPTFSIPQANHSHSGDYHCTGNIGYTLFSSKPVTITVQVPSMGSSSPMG
The method, then:
as §1, §2

Another assay concerns the target T4, FcgRIIIa V (human, UniProt P08637 17-208).
T4 construct: extracellular domain; also called FcγRIIIa V; not shown: His tag attached to the C terminus
The protocol: as §1, §2

A further assay has as its target T5, FcgRIIb (human, UniProt P31994 43-217).
T5 construct: extracellular domain; Expressed in FreeStyle293 cells and purified; used as analyte in Biacore; also called FcγRIIb; CD32B; not shown: His tag attached to the C terminus
T5 sequence (looked up): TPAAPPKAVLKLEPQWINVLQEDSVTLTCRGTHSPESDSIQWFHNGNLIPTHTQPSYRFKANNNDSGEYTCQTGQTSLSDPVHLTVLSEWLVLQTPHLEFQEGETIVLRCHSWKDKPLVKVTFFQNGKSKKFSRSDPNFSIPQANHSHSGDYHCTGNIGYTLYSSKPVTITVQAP
The protocol: as §1, §2

A further assay deals with T6, FcgRIIIa F (human, UniProt P08637 17-208).
T6 construct: extracellular domain; also called FcγRIIIa F; not shown: His tag attached to the C terminus
T6 sequence (P08637 17-208): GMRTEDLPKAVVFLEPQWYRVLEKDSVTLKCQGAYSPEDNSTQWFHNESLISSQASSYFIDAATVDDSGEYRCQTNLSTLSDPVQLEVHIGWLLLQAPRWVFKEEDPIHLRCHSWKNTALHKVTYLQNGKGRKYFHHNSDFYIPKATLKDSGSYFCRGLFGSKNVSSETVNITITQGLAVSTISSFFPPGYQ
The method, then: as §1, §2

The Kd is a measure of binding affinity in units of concentration. Low values mean tighter binding, high ones weaker binding.

T1 sequence (P12314 16-292): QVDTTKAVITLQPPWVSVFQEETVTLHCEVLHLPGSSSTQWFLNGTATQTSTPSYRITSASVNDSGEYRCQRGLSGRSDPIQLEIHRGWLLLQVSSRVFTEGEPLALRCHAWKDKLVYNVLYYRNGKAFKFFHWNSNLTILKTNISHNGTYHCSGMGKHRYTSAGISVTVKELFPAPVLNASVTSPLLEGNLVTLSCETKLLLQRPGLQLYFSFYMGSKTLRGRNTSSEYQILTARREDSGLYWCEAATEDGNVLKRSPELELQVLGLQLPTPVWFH
T4 sequence (P08637 17-208 F176V limits assumed): as the sequence (P08637 17-208) above, with F160V counted along it

B1: H240-Kn115/H240-Hl076/L73-k0 (antibody, human IgG1, kappa)
heavy 1: QDQLVQSGAEVKKPGASVKVSCKASGFNIKDTYIQWVRQAPGQGLEWMGRIDPLRKQTKYREKFEGRVTITADTSTNTAYMELSSLRSEDTAVYYCVRSGREFDYWGQGTLVTVSSASTKGPSVFPLAPSSKSTSGGTAALGCLVKDYFPEPVTVSWNSGALTSGVHTFPAVLQSSGLYSLSSVVTVPSSSLGTQTYICNVNHKPSNTKVDKKVEPKSCDKTHTCPPCPAPEYYWGPMVFLFPPKPKDTLMISRTPEVTCVVVDVSDEEPEVKFNWYVDGVEVHNAKTKPREEQYNATYRVVSVLTVLHQDWLNGKEYKCKVSNKALPAPIEKTISKAKGQPREPQVCTLPPSRDELTKNQVSLWCLVKGFYPSDIAVEWESNGQPENNYKTTPPVLDSDGSFFLYSKLTVDKSRWQQGNVFSCSVMHEALHNHYTQKSLSLSP
heavy 2: QDQLVQSGAEVKKPGASVKVSCKASGFNIKDTYIQWVRQAPGQGLEWMGRIDPLRKQTKYREKFEGRVTITADTSTNTAYMELSSLRSEDTAVYYCVRSGREFDYWGQGTLVTVSSASTKGPSVFPLAPSSKSTSGGTAALGCLVKDYFPEPVTVSWNSGALTSGVHTFPAVLQSSGLYSLSSVVTVPSSSLGTQTYICNVNHKPSNTKVDKKVEPKSCDKTHTCPPCPAPELLGGPSVFLFPPKPKDTLMISRTPEVTCVVVDVSHEEPEVKFNWYVDGVEVHNAKTKPREEQYNSTYRVVSVLTVLHQDWLNGKEYKCKVSNDALPMPIEETISKAKGQPREPQVYTLPPSRCELTKNQVSLSCAVKGFYPSDIAVEWESNGQPENNYKTTPPVLDSDGSFFLVSKLTVDKSRWQQGNVFSCSVMHEALHNHYTQKSLSLSP
light: DIQMTQSPSSLSASVGDRVTITCRASQDIHKYIAWYQQKPGQAPRLLIQYTSTLQPGVPSRFSGSGSGTDYTFTISSLQPEDIATYYCLQYEQLRTFGGGTKVEIKRTVAAPSVFIFPPSDEQLKSGTASVVCLLNNFYPREAKVQWKVDNALQSGNSQESVTEQDSKDSTYSLSSTLTLSKADYEKHKVYACEVTHQGLSSPVTKSFNRGEC
notes: Heterodimerized anti-EREG IgG1: Kn115 is H240-Kn072 with S239M
Regarding B1, the dissociation constant (Kd) with FcgRIa was found to be 0.27 nM; with FcgRIIa R it was 130 nM; in the assay with FcgRIIa H, 62 nM; with FcgRIIIa V, 0.43 nM; with FcgRIIb, 1300 nM; with FcgRIIIa F it was 1.4 nM.

B2: H240-Kn125/H240-Hl076/L73-k0 (antibody, human IgG1, kappa)
heavy 1: QDQLVQSGAEVKKPGASVKVSCKASGFNIKDTYIQWVRQAPGQGLEWMGRIDPLRKQTKYREKFEGRVTITADTSTNTAYMELSSLRSEDTAVYYCVRSGREFDYWGQGTLVTVSSASTKGPSVFPLAPSSKSTSGGTAALGCLVKDYFPEPVTVSWNSGALTSGVHTFPAVLQSSGLYSLSSVVTVPSSSLGTQTYICNVNHKPSNTKVDKKVEPKSCDKTHTCPPCPAPEYQWGPMVFLFPPKPKDTLMISRTPEVTCVVVDVSDEEPEVKFNWYVDGVEVHNAKTKPREEQYNATYRVVSVLTVLHQDWLNGKEYKCKVSNKALPAPIEKTISKAKGQPREPQVCTLPPSRDELTKNQVSLWCLVKGFYPSDIAVEWESNGQPENNYKTTPPVLDSDGSFFLYSKLTVDKSRWQQGNVFSCSVMHEALHNHYTQKSLSLSP
heavy 2: QDQLVQSGAEVKKPGASVKVSCKASGFNIKDTYIQWVRQAPGQGLEWMGRIDPLRKQTKYREKFEGRVTITADTSTNTAYMELSSLRSEDTAVYYCVRSGREFDYWGQGTLVTVSSASTKGPSVFPLAPSSKSTSGGTAALGCLVKDYFPEPVTVSWNSGALTSGVHTFPAVLQSSGLYSLSSVVTVPSSSLGTQTYICNVNHKPSNTKVDKKVEPKSCDKTHTCPPCPAPELLGGPSVFLFPPKPKDTLMISRTPEVTCVVVDVSHEEPEVKFNWYVDGVEVHNAKTKPREEQYNSTYRVVSVLTVLHQDWLNGKEYKCKVSNDALPMPIEETISKAKGQPREPQVYTLPPSRCELTKNQVSLSCAVKGFYPSDIAVEWESNGQPENNYKTTPPVLDSDGSFFLVSKLTVDKSRWQQGNVFSCSVMHEALHNHYTQKSLSLSP
light: DIQMTQSPSSLSASVGDRVTITCRASQDIHKYIAWYQQKPGQAPRLLIQYTSTLQPGVPSRFSGSGSGTDYTFTISSLQPEDIATYYCLQYEQLRTFGGGTKVEIKRTVAAPSVFIFPPSDEQLKSGTASVVCLLNNFYPREAKVQWKVDNALQSGNSQESVTEQDSKDSTYSLSSTLTLSKADYEKHKVYACEVTHQGLSSPVTKSFNRGEC
notes: Heterodimerized anti-EREG IgG1: Kn125 is H240-Kn072 with Y235Q and S239M
B2: the equilibrium dissociation constant (Kd) with FcgRIa worked out at 0.24 nM; with FcgRIIa R, 380 nM; with FcgRIIa H, 190 nM; with FcgRIIIa V it was 0.37 nM; with FcgRIIb, 4200 nM; in the assay with FcgRIIIa F, 1.2 nM.
